From article PMC8642242 (Nature Immunology, 2021)

Target: SARS-CoV-2 S protein, full length (IL1/2020), on 293F-Spike-S2A cells (SARS-CoV-2, USA/IL1/2020 (S identical …, UniProt P0DTC2))
Assay: flow cytometry on cells
Settings: one partner purified

Row | Binder | binding result
1 | WRAIR-2123 LALA-PG (human IgG1 with the triple Fc mutation LALA-PG) (antibody, V domains shown) VH: EVQLVESGGGVVQPGRSLRLSCAASGFTFSSYAMHWVRQAPGKGLEWVAVLSYDGSNKYNADSVKGRFTISRDNSKNTLYLQMNSLRVEDTAMYYCARDGVSVTMVRGVIGPLCDYWGQGTLVTVSS VL: not shown | binds
2 | WRAIR-2004 LALA-PG (human IgG1 with the triple Fc mutation LALA-PG) (antibody, V domains shown) VH: QVQLVQSGAEVKKPGASVKVSCKASGYTFTGYYMHWVRQAPGQGLEWMGRINPSSGGTNYAQKFQGRVTMTRDTSISTAYMELSSLRSDDTAVYYCATDGDDGENWFDPWGQGTLVIVSS VL: DIQMTQSPSSLSASVGDRVTITCRASQGISSWLAWYQQKPEKAPKSLIYAASSLQSGVPSRFSGSGSGTDFTLTISSLQPEDFATYYCQQYNSYPYTFGQGTKLEIK | binds
3 | WRAIR-2039 LALA-PG (human IgG1 with the triple Fc mutation LALA-PG) (antibody, V domains shown) VH: QVQLVQSGAEVKKPGASVKVSCKVSGYMLIELSMHWVRQAPGKGLEWMGGFDPEDAETIYAQEFQGRVTMTEDTSTDTAYMELSSLRSEDTAVYYCTTGPAVTNRPADYWGPGTLVTVSS VL: QSVLTQPPSVSGAPGQRVTISCTGSSSNIGASYDVHWYQQLPGTAPKLLIYANSNRPSGVPDRFSGSKSGTSASLAITGLQAEDEADYYCQSYDSSLSYSVVFGGGTKLTVL | binds
4 | WRAIR-2173 LALA-PG (human IgG1 with the triple Fc mutation LALA-PG) (antibody, V domains shown) VH: QVQLQESGPGLVKPSETLSLTCSVSGDSISSSDYSWGWIRQPPGKGLEWIGTIYYIKNTYYNPSLRSRVTLSVDTSKNLFSLKLSSVTAADTAVYYCARERPPFDVVVVPAARPYNWFDPWGLGTLVIVSS VL: QSVLMQPPSVSGAPGQRVTISCTGSSSNIGAGYDVHWYQQLPGTAPKLLIYGNNNRPSGVPDRFSGSKSGTSASLAITGLQADDEADYYCQSYDSSLSGSKVFGGGTKLTVL | binds
5 | WRAIR-2025 LALA-PG (human IgG1 with the triple Fc mutation LALA-PG) (antibody, V domains shown) VH: QVHLVQSGAEVKKPGASVKVSCKVSGYTLVELSVHWVRQAPAKGLEWIGGFDPEDGETIYAQKFQGRVTMTEDTSTDTAYMELTNLRSEDTAVYYCVTSQPFVSPNWFDPWGQGTLVTVSS VL: QSALTQPASVSGSPGQSITISCTGTSRDVGAYNYVSWYQQHPGKAPKLMIYEVTTRPSGVSNRFSGSKSGNTASLTISGLQAEDEADYYCSSYTGSRTLVFGTGTKVTVL | binds
